Experimental data reported in article PMC7241075.
Values joined by “and” are separate entries in the source; they are usually repeats but may differ in a detail not shown here. Identical values can stand only once.

How the values were obtained:
[1] = target: Scolopendra subspinipes subspinipes haemocyanin (Scolopendra subspinipes subspinipes); experiment: negative-stain transmission electron microscopy; first SEC peak in TRIS stabilizing buffer, stained with 2% uranyl acetate, Jeol 1400Plus
[2] = target: Scolopendra subspinipes subspinipes haemocyanin (Scolopendra subspinipes subspinipes); experiment: SEC; plasma (supernatant of haemolymph, 3300g, 30 min, 4°C) on Superose 6 3.2/300, isocratic Tris buffer with 5 mM CaCl2 and 5 mM MgCl2, pH 8.2 or 8.0 (methods), 0.1 ml min^-1; oligomer told from the retention volume
[3] = target: Scolopendra subspinipes subspinipes haemocyanin (Scolopendra subspinipes subspinipes); experiment: negative-stain transmission electron microscopy; Hc pellet from ultracentrifugation, 26-30 µg ml^-1, in 50 mM MES (pH 6.2, 6.6) or 50 mM TRIS-HCl (pH 7.2-8.5) with 5 mM CaCl2 and 5 mM MgCl2; particles counted as 3 × 6-mer or 1 × 6-mer
[4] = target: Scolopendra subspinipes subspinipes haemocyanin (Scolopendra subspinipes subspinipes); experiment: negative-stain transmission electron microscopy; first SEC peak in TRIS stabilizing buffer, stained with 2% uranyl acetate, Jeol 1400Plus; remark: listed apart in the source
[5] = target: Scolopendra viridicornis haemocyanin (Scolopendra viridicornis); experiment: as above
[6] = target: Scolopendra viridicornis haemocyanin (Scolopendra viridicornis); experiment: SEC; plasma (supernatant of haemolymph, 3300g, 30 min, 4°C) on Superose 6 3.2/300, isocratic Tris buffer with 5 mM CaCl2 and 5 mM MgCl2, pH 8.2 or 8.0 (methods), 0.1 ml min^-1; oligomer told from the retention volume

Substance: Scolopendra subspinipes subspinipes haemocyanin (complex)
- stoichiometry N [1]: 18
- stoichiometry N [2]: 18
- stoichiometry N [3]: 18 and 6
- stoichiometry N [4]: 6

Substance: Scolopendra viridicornis haemocyanin (complex)
- stoichiometry N [5]: 36 and 18
- stoichiometry N [6]: 36
